Laboratory results from patent US20260273112A1 (WASHINGTON UNIVERSITY, published 2026).

Biological target: T1, Recombinant human CD38 protein (R&D, Catalog 2404-AC-010) (human, UniProt P28907 43-300)
T1 construct: In the MST assay the protein was labeled with NT647 (red-maleimide kit) and used at 5 nM; also called purified CD38 protein; purified human CD38 protein
Experiment: MST, NT647-labeled recombinant human CD38 at 5 nM, peptide titrated, 37 C
Procedure: Microscale thermophoresis (MST) assays determined the binding affinity of synthesized peptides to purified CD38 protein and was performed using the Monolith NT.115 (Nanotemper Technologies, Munich, Germany). […] Recombinant human CD38 protein (R&D, Catalog 2404-AC-010, Minneapolis, MN) was labeled with NT647 (Protein labeling kit red-maleimide, Nanotemper Technologies, Germany) and subsequently diluted to 5 nM in MST-2 buffer (50 mM Tris-HCl, pH 7.4, 150 mM NaCl, 10 mM MgCl₂, 2% DMSO, and 0.1% Tween-20). Fluorescence was assessed in MST-2 buffer. Samples were loaded into NT.115 standard capillaries, and analysis was performed at 37° C., 10% LED power, and 40% MST power. The Kd values were calculated from fragment concentration-dependent changes in normalized fluorescence (Fraction Bound) of different CD38 peptides based on the law of mass action using the MO Affinity Analysis v2.3 software.

| Kd | Binder |
| --- | --- |
| 243 nM | FSRDWTSGGSK (N-terminal acetyl (AC); C-terminal amide (NH2)) [AC-SL028-GGS (AC-Phe-Ser-Arg-Asp-Trp-Thr-Ser-Gly-Gly-Ser-Lys-NH2)] |
| 82.6 nM | H-KGGSFSRDWTS-NH2 (Synthetic peptide, high score cluster B) [GGS-SL028 (H-Lys-Gly-Gly-Ser-Phe-Ser-Arg-Asp-Trp-Thr-Ser-NH2)] |
